According to US20080038735A1:

Biological target: TNFa, P01375
Assay: not stated (told as a known affinity); low affinity dAb, known affinity, lower bound
Conditions: remark: other sources report otherwise

Chain of TNFa, P01375 (P01375 77-233 limits assumed): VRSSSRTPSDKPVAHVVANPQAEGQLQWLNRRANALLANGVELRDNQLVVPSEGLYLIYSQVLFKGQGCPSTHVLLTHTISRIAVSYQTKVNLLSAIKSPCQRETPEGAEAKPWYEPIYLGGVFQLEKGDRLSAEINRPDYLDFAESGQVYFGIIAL

B1: Vk(TAR1-5) (protein)
VL: DIQMTQSPSSLSASVGDRVTITCRASQSIFMNLLWYQQKPGKAPKLLIYNASVLQSGVPSRFSGSGSGTDFTLTISSLQPEDFATYYCQQVVWRPFTFGQGTKVEIKR
modifications: here or on the partner: biotinylated (sites not given)
Work on B1 yielded a Kd of over 5 µM.
